Data from patent US20140322242A1, “MATERIALS AND METHODS FOR THE PREVENTION AND TREATMENT OF CANCER” (Icahn School of Medicine at Mount Sinai, priority 2010, published 2014).

Assays:
[1] = tested on: healthy prostate; experiment: Healthy (tumor-free) prostate: nerve density, epithelial cell proliferation, apoptosis, Chrm1 expression; assay type: in vivo, mouse
Experimental: (§1) Upon sacrifice, mouse prostate tissues were immersed in OCT medium (Tissue Teck®). Five-micrometer frozen sections were stained with hematoxylin-eosin (H&E). For immunofluorescence, unstained prostate sections were fixed with acetone or methanol. For staining of nerves, fixed sections were incubated in H2O2 to quench endogenous peroxidase and non-specific binding was blocked with goat serum in bovine serum albumin (BSA) solution and the avidin/biotin blocking kit (Vector Laboratories, Burlingame, Calif.). Sections were incubated with a rabbit anti-TH antibody (Millipore, Billerica, Mass.), or anti-VAChT antibody (Phoenix Pharmaceuticals, Inc., Burlingame, Calif.), or anti-NF-L antibody (Millipore), or anti-NF-H antibody (Abcam, Cambridge, Mass.) and then with a secondary biotinylated goat anti-rabbit antibody (Vector Laboratories). Signal was amplified using the Vectastain Elite ABC Kit (Vector Laboratories) and visualized using the Tyramide Signal Amplification kit for TRITC (PerkinElmer, Boston, Mass.).
(§2) For proliferative cell quantification, sections were incubated with a rabbit polyclonal anti-Ki67 (Abcam) and then Alexafluor 568-conjugated goat anti-rabbit antibody (Molecular Probes, Carlsbad, Calif.).
For apoptotic cell quantification, prostate sections were fixed with 4% paraformaldehyde (PFA) and stained with the Mebstain Apoptosis Kit according to manufacturer's recommendations (MBL International, Woburn, Mass.). Basement membranes were stained with a rat polyclonal anti-α2laminin antibody (Abcam) followed by Alexafluor647-conjugated goat anti-rat antibody (Molecular Probes).
Gene expression levels were analyzed from RNA extracted, using the TRIzol solution (Invitrogen, Carlsbad, Calif.), from PC-3, DU145, LNCaP cell lines or prostates from Balb/c nu/nu mice by quantitative real-time PCR, as described previously (Mendez-Ferrer, Nature, 452:442-447 (2008)).

[2] = tested on: murine fetal neurons; experiment: Neurite outgrowth in fetal neuronal cultures; assay type: cell-based, mouse; conditions: G-CSF, cultivation for 6 days
Experimental: To evaluate neurite growth, cultures were fixed for 10 minutes at −20° C. with 5% glacial acetic acid/95% ethanol and then incubated with an anti-phosphorylated NF-H antibody (Sigma, clone NE14) and a rabbit anti-microtubule-associated protein-2 antibody (Chemicon), followed by Alexafluor488-conjugated goat anti-mouse antibody and Alexafluor568-conjugated goat anti-rabbit antibody (Molecular probes). For G-CSFR staining, mouse fetal neurons in culture were fixed with methanol and then incubated with a rabbit anti-G-CSFR (Santa-Cruz biotechnology, Santa Cruz, Calif.) and Alexafluor568-conjugated goat anti-rabbit antibody (Molecular probes). Neurite outgrowth was analyzed objectively from 40 random fields (field area=0.6 mm^2) per growth condition using the “Neurite Outgrowth” module of Metamorph software (MDSAT).
Neuronal cultures were prepared from embryonic day 15 fetal neocortex as described in Dobrenis et al., J Neurosci. Res. 82(3):306-315 (2005), incorporated herein by reference. Briefly, after enzymatic and mechanical tissue dissociation, cells were plated at 2.5×10^4/cm^2 (day 0) and treated with 20 μg/ml 5-fluoro-2′ deoxyuridine and 50 μg/ml uridine at day 4 for 24 hours to eliminate glial growth. At day 1, cultures were maintained in serum-free medium and incubated with G-CSF at different concentrations (0, 500, 1000 ng/ml) until day 7.

[3] = tested on: prostate cancer in cMyc mice; experiment: cMyc transgenic mouse model of prostate cancer (mPIN, invasive cancer zones); assay type: in vivo; conditions: G-CSF; 11 weeks of age
Experimental: To investigate further the activity of G-CSF on tumor development using a genetic mouse model, transgenic mice expressing human cMyc under the ARR2/probasin promoter expressed specifically in the prostate (hereafter cMyc mice) were evaluated. This transgenic model leads to the complete penetrance of mouse prostatic intraepithelial neoplasia (mPIN) from postnatal week 2, progressing to invasive adenocarcinomas between 3 to 6 months of age (FIG. 2m). […] The development of invasive cancer was associated with a broad infiltration of NF-L+ neo-fibers by comparison with control animals (FIG. 2o). Thus, the increased tumor/normal epithelial cell proliferation following G-CSF administration is associated with (i.e., is correlated to) the development of new nerve fibers in the primary tumor. Accordingly, a method of treating cancer in a subject such as a human patient or non-human animal (e.g., non-human mammal) comprises administering a prophylactically or therapeutically effective amount of an inhibitor of NF-L+ neo-fibers. In some embodiments, the method comprises administering a prophylactically or therapeutically effective amount of an inhibitor of G-CSF.
(§3) Human tumors were induced by orthotopic surgical implantations of 1×10^5 PC-3luc cells into six- to eight-week-old Balb/c nu/nu mice. Ten days after cell injection (day 0), the animals were randomized into the different groups and received the appropriate drugs, as indicated. 6OHDA or vehicle was injected at day 0 (100 mg/kg) and day 2 (250 mg/kg), and human recombinant G-CSF treatment was begun on day 4 (Amgen, 250 μg/kg/day, every 12 hours, 8 divided doses, i.p., in 5% dextrose). A second cycle was administered eight weeks after graft and animals were sacrificed three weeks after the last injection of G-CSF (i.e., 11 weeks after graft). In other experiments, 2×10^5 PC-3luc cells were orthotopically injected into nu/nu Adrβ2^tm1Bkk/J+/+ Adrβ3^tm1Lowl/J+/+, nu/nu Adrβ2^tm1Bkk/J−/−, nu/nu Adrβ3^tm1Lowl/J−/− and nu/nu Adrβ2^tm1Bkk/J−/− Adrβ3^tm1Lowl/J−/−. In selected experiments, 2×10^6 LNCaP-luc cells were injected in nu/nu Adrβ2^tm1Bkk/J+/+ Adrβ3^tm1Lowl/J+/+ and nu/nu Adrβ2^tm1Bkk/J−/− Adrβ3^tm1Lowl/J−/− mice. For the transgenic model, one-, two- or five-month-old c-Myc mice were injected with 6OHDA or surgically sympathectomized according to protocols described above and sacrificed 30 days later.
To ascertain the role of sympathetic innervation in tumor initiation using a genetic model, the effect of chemical or surgical sympathectomy on prostate cancer in cMyc mice was evaluated. For this study, transgenic cMyc mice expressing human c-Myc under the ARR2/probasin promoter expressed specifically in the prostate (AAR2/Pbsn-MYC) were used. This transgenic model leads to the complete penetrance of mouse prostatic intraepithelial neoplasia (mPIN) from postnatal week 2, progressing to invasive adenocarcinomas between 3 to 6 months of age (FIG. 6e). To this end, mice were chemically sympathectomized one month prior to histological analyses.
Disease progression was monitored by bioluminescence scanner. […] Mice were sacrificed at week 10.

[4] = tested on: PC-3luc cells; experiment: PC-3luc cell proliferation / cytotoxicity in vitro (MTT); assay type: cell-based, human; conditions: G-CSF, 96 hours, three concentrations
Experimental: A cell proliferation assay was performed on human PC-3 prostate tumor cells after 96 hours of treatment by G-CSF at three different concentrations by comparison with human leukemic cells (HL-60 and U937). Cell proliferation was quantified by a cell viability assay using MTT (3-[4,5-dimethylthiazole-2-yl]-2,5-diphenyltetrazolium bromide (Sigma). The percentage of viable cells was calculated by comparing the optical density (OD) of the treated samples with those incubated with vehicle. Methods were carried out as described by Magnon, et al., Cancer Res, 65, 4353-61 (2005); incorporated herein by reference in its entirety.

[5] = tested on: PC-3luc cells; experiment: Xenogeneic orthotopic PC-3luc prostate tumor model in nude mice (bioluminescence, immunofluorescence); assay type: in vivo, Balb/c nu/nu mice
Experimental: The microenvironment of a developing tumor is important in cancer development and metastasis. A xenogeneic orthotopic model of prostate cancer was established to provide a minimally disruptive microenvironment for this cancer in live mice.
In vivo and ex vivo bioluminescence imaging was performed and analyzed using an IVIS imaging system 200 series (Xenogen, Caliper Life Sciences, Hopkinton, Mass.). Bioluminescent signal was induced by i.p. injection of D-luciferin (150 mg/kg in PBS) 8 minutes prior to in vivo imaging. For ex vivo imaging, D-luciferin (300 mg/kg) was injected 7 minutes prior to necropsy. Organs of interest were immersed in a solution of D-luciferin at 150 mg/ml.
as §1, §2, §3
A second cycle was administered at week four and mice were sacrificed one week later (five weeks after graft). For cholinergic experiments using the nu/nu Chrm1^tm1Stl+/+ and nu/nu Chrm1^tm1Stl−/− animals, mice were sacrificed at week six post-graft. For the survival study, grafted mice were treated as described hereinabove from week 4, every two weeks for up to 25 weeks or until death. Disease progression was monitored by bioluminescence scanner. […] One week later, mice received a second round of treatment and were then sacrificed at month four.

B1: G-CSF: human recombinant granulocyte-colony stimulating factor (Amgen), hematopoietic growth factor (protein, UniProt P09919 31-207, looked up)
Granulocyte …: TPLGPASSLPQSFLLKCLEQVRKIQGDGAALQEKLVSECATYKLCHPEELVLLGHSLGIPWAPLSSCPSQALQLAGCLSQLHSGLFLYQGLLQALEGISPELGPTLDTLQLDVADFATTIWQQMEELGMAPALQPTQGAMPAFASAFQRRAGGVLVASHLQSFLEVSYRVLRHLAQP
proliferation of healthy epithelial cells (anti-Ki67 staining) ([1]; G-CSF treatment): led to proliferation
density of NF-L+ nerve fibers in healthy (tumor-free) prostate ([1]; three weeks after G-CSF, vs PBS control): higher density
Chrm1 expression in the prostate gland ([1]; three weeks after last G-CSF injection, Q-PCR): tended to increase
axonal outgrowth vs vehicle-treated controls [2]: about 2 fold
dendrite outgrowth [2]: unchanged
frequency of mPIN [3]: modest, but significant, effect
number of invasive cancer zones [3]: dramatically increased
proliferation of PC-3luc tumor cells in vitro [4]: could not stimulate
tumor cell proliferation in the primary tumors (Ki67 staining) ([5]; G-CSF 250 μg/kg/day, orthotopic PC-3luc): significantly increased
TH+ fibers against 6OHDA-induced damage ([5]; G-CSF after 6OHDA): protected
development of primary tumors initially sympathectomized with 6OHDA ([5]; G-CSF after 6OHDA): rescued
metastases in 6OHDA-lesioned animals ([5]; G-CSF after 6OHDA): did not induce
invasion of inguinal lymph nodes and metastases ([5]; G-CSF alone, bioluminescence, week 11): induced
size of the primary tumor ([5]; G-CSF treatment): did not affect
infiltration of VAChT+ parasympathetic neo-nerves ([5]; immunofluorescence of tumors): selectively promoted
density of newly formed NF-L+ nerves in prostate tumors ([5]; vs PBS, 11 weeks): significantly higher densities
